Assay results taken from patent publication US12104178B2, “DHFR tunable protein regulation” (Obsidian Therapeutics, Inc., priority 2017, dated 2024).
Read-outs that look alike come from different tables or passages of the source.

Experiments:
[1] = cited from earlier work; for Duration of action: in vivo
HEK-293T cells = test: IL15 western blot of DD IL15-IL15Ra, transient transfection; assay type: cell-based, human; settings: 10 μM Trimethoprim or 1 μM Shield-1, 24 h
Procedure: To test ligand dependent IL15-IL15Ra production, 1 million HEK-293T cells were plated in a 6-well plate in growth media containing DMEM and 10 FBS and incubated overnight at 37° C., 5% CO2. […] Cells were harvested and IL15 levels are analyzed via western blotting using human IL15 antibody (Abcam, Cambridge, UK).

HCT-116 = test: Surface expression of IL15-IL15Ra fusion constructs, PE-IL15Ra antibody FACS; assay type: cell-based, human; settings: for Median Fluorescence Intensity, surface IL15-IL15Ra: 24 h
Procedure: Membrane bound-IL15-IL15Ra constructs (OT-IL15-008 to OT IL-15-011) were transduced into human colorectal carcinoma cell line, HCT-116 and stable integrants were selected with 2 μg of puromycin.
Surface expression of IL15-IL15Ra fusion constructs was examined by staining with PE-conjugated IL15Ra antibody (Cat no. 330207, Biolegend, San Diego, CA). The median fluorescence intensity obtained with the different constructs in the presence or absence of the corresponding ligand is presented in Table 53. The stabilization ratio was calculated as the fold change in fluorescence intensity in ligand treated samples compared to treatment with DMSO (i.e. in the absence of ligand) with the same construct. The destabilization ratio was calculated as the fold change in fluorescence intensity in the DD regulated constructs compared to the constitutive construct (OT-IL15-008) in the absence of the ligand. Destabilization ratios less than 1 and stabilization ratios greater than 1 are desired in DDs.
Membrane bound-IL15-IL15Ra constructs (OT-IL15-008 to OT IL15-011) were transduced into human colorectal carcinoma cell line, HCT-116 and stable integrants were selected with 2 μg of puromycin.
Surface expression of IL15-IL15Ra fusion constructs was examined by staining with PE-conjugated IL15Ra antibody (Cat no. 330207, Biolegend, San Diego, CA). The median fluorescence intensity obtained with the different constructs in the presence or absence of the corresponding ligand is presented in Table 55.
The stabilization ratio was calculated as the fold change in GFP intensity in ligand treated samples compared to treatment with DMSO (i.e. in the absence of ligand) with the same construct. The destabilization ratio was calculated as the fold change in GFP intensity in the DD regulated constructs compared to the constitutive construct (OT-IL15-008) in the absence of the ligand. Destabilization ratios less than 1 and stabilization ratios greater than 1 are desired in DDs.

HCT-116 cells = test: DD regulated luciferase, western blot and luciferase activity; assay type: cell-based, human; settings: 1 μM Shield-1 or 10 μM Trimethoprim, 24 h
From the text: DD regulated luciferase can be used to track cells in vivo e.g. T cells. Firefly luciferase or Renilla luciferase may be utilized as the payload. HCT-116 cells were stably transduced with the constitutive (OT-RLuc-001) or DD regulated constructs (OT-RLuc-002, OT-RLuc-003, OT-RLuc-004, OT-RLuc-005 and OT-RLuc-006). […] Blots were also probed with anti-GAPDH antibody to ensure uniform protein loading in all samples. […] (FIG. 59A).
Ligand dependent activity of Renilla and firefly luciferase constructs was measured using coelentrazine and luciferin substrates respectively. […] Luciferase activity was measured as luminescence reading using a luminometer and the values were compared to control samples consisting of lysis buffer and substrate.

NIH 3T3 cells = test: hDHFR mutant-GFP reporter stability with DMSO, MTX or TMP (FACS); assay type: cell-based; settings: for GFP intensity Fold Change vs DMSO: 48 h; for Destabilizing mutation co-efficient: GFP intensity vs hDHFR (WT); for Destabilizing mutation co-efficient / Median Fluorescence signal with DMSO: no ligand; for Median Fluorescence signal with DMSO: hDHFR-GFP, DMSO 48 h
From the text: Known destabilizing mutations in E. coli DHFR (ecDHFR) were mapped onto the structure of human DHFR (hDHFR) and corresponding mutations in wild type hDHFR protein were generated using site directed mutagenesis. hDHFR mutants were then fused to a linker, GGSGGG (SEQ ID NO: 2728) and a GFP reporter gene at the N terminus. […] The hDHFR N terminus mutant construct cloned into pLVX. IRES. The reporter constructs were transfected into NIH 3T3 cells. […] DMSO was used as control. Fluorescence signal was measured by FACS and median fluorescence signal intensity was calculated. The destabilizing mutation co-efficient was calculated as the fold change in GFP intensity in the hDHFR mutant constructs compared to the hDHFR (WT) in the absence of the ligand. Destabilizing mutation co-efficients less than 1 are desired in DDs.
Percentage of GFP positive cells as a measure of ligand dependent DD stabilization in each transfection was calculated using FACS Calibur™ (see Table 46).

hDHFR = test: Immunoblot of hDHFR WT and mutants after TMP, MTX or DMSO; assay type: cell-based, human; settings: MTX or DMSO 48 h
From the text: The results were consistent using both the AcGFP antibody as well as the hDHFR antibody.

HEK 293T cells = test: GFP-hDHFR C terminus fusions, MFI (FACS); assay type: cell-based, human; settings: 1 μM MTX or 50 μM TMP, 48 h
Procedure: DDs may be positioned upstream or downstream of the payload within an SRE. hDHFR mutants generated by structure guided mutagenesis as discussed in example 2 were fused at the C-terminus of GFP to test if the hDHFR mutants can destabilize proteins of interest when fused to the C-terminus of the protein of interest. A linker, GGSGGG (SEQ ID NO. 6413) was placed between GFP and hDHFR and cloned into pLVX.IRES. Puro.
Following the incubation, median fluorescence intensity (MFI) was measured using FACS.

CN(Cc1cnc2nc(N)nc(N)c2n1)c1ccc(C(=O)N[C@@H](CCC(=O)O)C(=O)O)cc1 [Methotrexate]
Cmax ([1]; 12 g/m^2 infusion): 1500 nM
Duration of action [1]: >12 h

COc1cc(Cc2cnc(N)nc2N)cc(OC)c1OC [Trimethoprim]
Cmax ([1]; IV, approved dose IV 20 mg/kg/6 hr): 25000 nM
Cmax ([1]; PO, approved dose PO up to 20 mg/kg/day): 1000 nM
Duration of action [1]: 2 to 72 h

OT-IL15-006: IL15-IL15Ra fusion with ecDHFR (R12Y, E129K) DD
IL15 stabilization by western blot (FIG. 24A) (HEK-293T cells): modest ligand dependent stabilization of IL15
Median Fluorescence Intensity, surface IL15-IL15Ra (HCT-116; 10 μM TMP): 2978
Median Fluorescence Intensity, surface IL15-IL15Ra (HCT-116; DMSO): 764
Stabilization ratio (HCT-116; TMP vs DMSO): 3.90
Destabilization ratio (HCT-116; vs constitutive OT-IL15-008, no ligand): 0.14

B1: OT-RLuc-001: constitutive Renilla luciferase construct (protein, listed as Renilla reniformis)
chain: MTSKVYDPEQRKRMITGPQWWARCKQMNVLDSFINYYDSEKHAENAVIFLHGNAASSYLWRHVVPHIEPVARCIIPDLIGMGKSGKSGNGSYRLLDHYKYLTAWFELLNLPKKIIFVGHDWGACLAFHYSYEHQDKIKAIVHAESVVDVIESWDEWPDIEEDIALIKSEEGEKMVLENNFFVETMLPSKIMRKLEPEEFAAYLEPFKEKGEVRRPTLSWPREIPLVKGGKPDVVQIVRNYNAYLRASDDLPKMFIESDPGFFSNAIVEGAKKFPNTEFVKVKGLHFSQEDAPDEMGKYIKSFVERVLKNEQ
Luciferase activity (FIG. 59B) (HCT-116 cells): high luciferase activity both in the presence and absence of ligand
Luciferase stabilization by western blot (FIG. 59A) (HCT-116 cells): expression of Renilla luciferase both in the presence and absence of ligand

B2: OT-hDHFRN-005: hDHFR A125F, Y122I-GFP (protein, UniProt P00374 1-187, looked up, variant A125F Y122I)
Dihydrofolate reductase: MVGSLNCIVAVSQNMGIGKNGDLPWPPLRNEFRYFQRMTTTSSVEGKQNLVIMGKKTWFSIPEKNRPLKGRINLVLSRELKEPPQGAHFLSRSLDDALKLTEQPELANKVDMVWIVGGSSVIKEFMNHPGHLKLFVTRIMQDFESDTFFPEIDLEKYKLLPEYPGVLSDVQEEKGIKYKFEVYEKND
modifications: GFP fusion
notes: hDHFR A125F, Y122I-GFP
% GFP positive cells (NIH 3T3 cells; 1 μM MTX): 89.6%
GFP intensity Fold Change vs DMSO (NIH 3T3 cells; 1 μM MTX): 26.98
% GFP positive cells (NIH 3T3 cells; 10 μM TMP): 54.7%
GFP intensity Fold Change vs DMSO (NIH 3T3 cells; 10 μM TMP): 6.24
% GFP positive cells (NIH 3T3 cells; DMSO): 0.64%
Destabilizing mutation co-efficient (NIH 3T3 cells): 0.14
Median Fluorescence signal with DMSO (NIH 3T3 cells): 2.55
Protein level stabilization (immunoblot, FIG. 19) (hDHFR): stabilized following treatment with both MTX and TMP

B3: OT-hDHFRN-008: hDHFR G21T, Y122I-GFP (protein, UniProt P00374 1-187, looked up, variant G21T Y122I)
Dihydrofolate reductase: MVGSLNCIVAVSQNMGIGKNTDLPWPPLRNEFRYFQRMTTTSSVEGKQNLVIMGKKTWFSIPEKNRPLKGRINLVLSRELKEPPQGAHFLSRSLDDALKLTEQPELANKVDMVWIVGGSSVIKEAMNHPGHLKLFVTRIMQDFESDTFFPEIDLEKYKLLPEYPGVLSDVQEEKGIKYKFEVYEKND
modifications: GFP fusion
notes: hDHFR G21T, Y122I-GFP
% GFP positive cells (NIH 3T3 cells; 1 μM MTX): 86.6%
GFP intensity Fold Change vs DMSO (NIH 3T3 cells; 1 μM MTX): 14.53
% GFP positive cells (NIH 3T3 cells; 10 μM TMP): 2.92%
GFP intensity Fold Change vs DMSO (NIH 3T3 cells; 10 μM TMP): 1.30
% GFP positive cells (NIH 3T3 cells; DMSO): 0.61%
Destabilizing mutation co-efficient (NIH 3T3 cells): 0.18
Median Fluorescence signal with DMSO (NIH 3T3 cells): 3.27
Protein level stabilization (immunoblot, FIG. 19) (hDHFR): stabilization exclusively with MTX

B4: OT-hDHFRN-007: hDHFR L94A, T147A-GFP (protein, UniProt P00374 1-187, looked up, variant L94A T147A)
Dihydrofolate reductase: MVGSLNCIVAVSQNMGIGKNGDLPWPPLRNEFRYFQRMTTTSSVEGKQNLVIMGKKTWFSIPEKNRPLKGRINLVLSRELKEPPQGAHFLSRSADDALKLTEQPELANKVDMVWIVGGSSVYKEAMNHPGHLKLFVTRIMQDFESDAFFPEIDLEKYKLLPEYPGVLSDVQEEKGIKYKFEVYEKND
modifications: GFP fusion
notes: hDHFR L94A, T147A-GFP
% GFP positive cells (NIH 3T3 cells; 1 μM MTX): 40.7%
GFP intensity Fold Change vs DMSO (NIH 3T3 cells; 1 μM MTX): 4.46
% GFP positive cells (NIH 3T3 cells; 10 μM TMP): 0.52%
GFP intensity Fold Change vs DMSO (NIH 3T3 cells; 10 μM TMP): 1.00
% GFP positive cells (NIH 3T3 cells; DMSO): 0.26%
Destabilizing mutation co-efficient (NIH 3T3 cells): 0.15
Median Fluorescence signal with DMSO (NIH 3T3 cells): 2.67
Protein level stabilization (immunoblot, FIG. 19) (hDHFR): stabilization exclusively with MTX

B5: OT-hDHFRC-015: GFP-hDHFR (A125F, Y122I) (protein, UniProt P00374 1-187, looked up, variant A125F Y122I)
Dihydrofolate reductase: MVGSLNCIVAVSQNMGIGKNGDLPWPPLRNEFRYFQRMTTTSSVEGKQNLVIMGKKTWFSIPEKNRPLKGRINLVLSRELKEPPQGAHFLSRSLDDALKLTEQPELANKVDMVWIVGGSSVIKEFMNHPGHLKLFVTRIMQDFESDTFFPEIDLEKYKLLPEYPGVLSDVQEEKGIKYKFEVYEKND
modifications: N-terminal GFP fusion
MFI change over DMSO, GFP-hDHFR C terminus fusion (FIG. 20) (HEK 293T cells): several fold increase in MFI over DMSO with both MTX and TMP
